{"source": "the DeepSol protein solubility set"}
{"assay": "soluble on expression in E. coli; label from the status in PepcDB or PDB records"}
{"sequence": "MPVTLSFGNRHNYEINHSRLARLMSPDKEEALYMGVWDRFKDCFRTHKKQEVLEVLYTLIHGCERENQAELNVDITGMEKIHAFTQLKEYANPSQQDRFVMRFDMNQTQVLFEIDGKVIDKCNLHRLLNVSENCIFKVMEEDEEELFLKICIKYGEKISRYPELLEGFANKLKDAVNEDDDVKDEVYKLMRSGEDRKMECVEWNGTLTEEEKNKLRCLQMGSFNITTQFFKIGYWELEGEVLFDMVHPTLSYLLQAYKPSLSSDLIETNTMLFSDVLNKDYDDYQNNKREIDAILRRIYRSHNNTLFISEKSSCRNMLI", "soluble on expression in E. coli": "not soluble"}
{"sequence": "MDVDLAAPMSESEKLLYRSNLLGSDKRITNYGGGNTSAKVIETDPLTGEPAEVLWVKGSGGDVGSIRMDGFATLYMDKLNALRGIYRGGEHEDEMVAFLRHCTFNLNPRAASIDTPLHAYVPAKHVDHMHPDAIIAIAAAKDSKKLTQEIFGDRIGWLPWKRPGYELGLWLSDFCEKNPDAKGVVLESHGLFTWADDARECYERTLEIIQTAMDWFAEQTAGKPAFGGALEHHHHHH", "soluble on expression in E. coli": "not soluble"}
{"sequence": "SLSSVNCIEQTTEWTACSKSCGMGFSTRVTNRNRQCEMLKQTRLCMVRPCEQEPEQPTDKKGKKCLRTKKSLKAIHLQFKNCTSLHTYKPRFCGVCSDGRCCTPHNTKTIQAEFQCSPGQIVKKPVMVIGTCTCHTNCPKNNEAFLQELELKTTRGKM", "soluble on expression in E. coli": "soluble"}
{"sequence": "HYNTEILKSIDNEWRKTQCMPREVCIDVGKEFGVATNTFFKPPCVSVYRCGGCCNSEGLQCMNTSTSYLSKTLFEITVPLSQGPKPVTISFANHTSCRCMSKLDVYRQVHSIIRR", "soluble on expression in E. coli": "soluble"}
{"sequence": "MPSKTFLLTHTFKDISKLGEGESYYSDIEIRYNIPWSIQVFKNESFLGLLLNCEKEELLEKKKWSLQVKFTMKLVAVSGKFFQRTVKNEFQNPEGHGMDKFISWENMLRDYVNNDSIVIEINADIVSSSGFFKHKYSPCSQSYSGKSFVLKHNFKNRRFVEAERCFSDIEEHYNVPWRLRIQKYKKGFLGIHLLCEKETCDGRSWSIQCDYELQLISSKGKCYSRHSTFNFEKPGGNYQEVEFINWKVMEEEYMDSDSICVEAHVKICKTQELPCNILSTHRKFVLSHTVRNISSINGGNVYFTDIETRFNVPWKLSFVRQSGFIELYLRCEKKQCLSRTWSIEAEFTLKLVSPHGRSLSLRKIYSFEKSIGNGYSKVMRWDEMKDKYVVDNSIIIEAHVKILNMTGIESETTIKKTSGFTIPVGDMEYSMEKWMEMAFDH", "soluble on expression in E. coli": "not soluble"}
{"sequence": "MGLSPGQTSVSFLWPLLEVRDHNTGRGLVPATVLTPGSPETLLELRQAFLGSRQARHGHDAAPSSGQQGCSVDRTAGRPVLGWRLRNSLTGQEGRQHLHLSGIRTSRKAKEYKPVFFGATEISVLMAVAESLREPPPPQWGWFLSSLFLKIF", "soluble on expression in E. coli": "not soluble"}
{"sequence": "MAISGVTLEESVRGAIDDLRMKKSRYVMMCIGADGKKIEVTEVGERSVNYTDLKEKFSTEKPCYVAFDFEYNDAGSKREKLILIQWIPDTARPREKMMYSASRDALSSVSEGYLPIQANDESGLDAEEIIRKVRLHRSVAAALE", "soluble on expression in E. coli": "soluble"}
{"sequence": "APSCPAGSLCTYSGTGLSGARTVIPASDMEKAGTDGVKLPASARSFANGTHFTLRYGPARKVTCVRFPCYQYATVGKVAPGAQLRSLPSPGATVTVGQDLGD", "soluble on expression in E. coli": "soluble"}
{"sequence": "SLKGLKAYRLDVPPMLADRGIDRMLAFAVPLTVRFRGIKVREGTLLHGPEGWGEWSPFWDYDPVESASWLRAGIEGATRRLPVARRDRVPINVTIPVVDADRAGRMAAESACLTAKVKVADPRSDLREDCRRVAAVREAMPDGHIRVDANTAWDVDAAVRAITELDAAAEGLEYVEQPCASVAELAQVRRKVNVPVAADESVRRAEDPLAVARAGAADLLIVKAQPLGGVARALEVIDATGLPAVVSSALDTSIGIGLATYLAAALPSLDHACGLGTIRLFQGDVSASPLLPVDGYLRPRRGEVDVEVEESDTDLCPRWSQRLALTVAALVERERS", "soluble on expression in E. coli": "not soluble"}
{"sequence": "MRSKRFEALAKRPVNQDGFVKEWIEEGFIAMESPNDPKPSIKIVNGAVTELDGKPVSDFDLIDHFIARYGINLNRAEEVMAMDSVKLANMLCDPNVKRSEIVPLTTAMTPAKIVEVVSHMNVVEMMMAMQKMRARRTPSQQAHVTNVKDNPVQIAADAAEGAWRGFDEQETTVAVARYAPFNAIALLVGSQVGRPGVLTQCSLEEATELKLGMLGHTCYAETISVYGTEPVFTDGDDTPWSKGFLASSYASRGLKMRFTSGSGSEVQMGYAEGKSMLYLEARCIYITKAAGVQGLQNGSVSCIGVPSAVPSGIRAVLAENLICSSLDLECASSNDQTFTHSDMRRTARLLMQFLPGTDFISSGYSAVPNYDNMFAGSNEDAEDFDDYNVIQRDLKVDGGLRPVREEDVIAIRNKAARALQAVFAGMGLPPITDEEVEAATYAHGSKDMPERNIVEDIKFAQEIINKNRNGLEVVKALAQGGFTDVAQDMLNIQKAKLTGDYLHTSAIIVGDGQVLSAVNDVNDYAGPATGYRLQGERWEEIKNIPGALDPNEID", "soluble on expression in E. coli": "soluble"}
{"sequence": "MGSDKIHHHHHHMTERIRIGISSCLLGNKVRHDGGHKFDSYIVNVLGRYLDFVPVCPEVECGLPTPREPMRLAGDVHSPRLMTSKTWQDKTEQMQTWADSKVRELEGQGLCGFIFKRGSPSSGMERVKVYPFTDPREVKNVGAPVLKGSGLFARTFMEHFPLLPVEEEGRLNDPVLRENFIERLFVVRRWYDLLESGMAPGAVVEFHTRHKLLLLAHSTQKYREMGRLVAAVREYSPEQFRTEYRRLLMEALSVRATAGRHANVQQHIMGYFRRQLTTDEKQELVEIIDRYRNGLVPLIVPVTMLNHYVRKYGDEYLAGQYYLNPHPVELKLRNHI", "soluble on expression in E. coli": "not soluble"}
{"sequence": "MSLKRTAEEIKQEVKSLSQQALDAVKKHTHSPEGVKELLNFMSRFPERSFRNQLLIEEQFPGATACLGRAALKKEGIYIKKGEQGNKIFVRKTVKGFYEKGRGFVRETEATPEDKKRIKSGQIEVIKKPYYTIEKVFDITQTQLKPEDYPKIFPNRVFDFQLDAKGQSELQAGIQAVANNIGIQIRDMTESEEGHHHHHH", "soluble on expression in E. coli": "soluble"}
{"sequence": "MDKILGIKFRDYGQVYYFLAGEAEVSLGDRVIVETDQGQGIGEVIAVRDDRPSDAGDEELQPILRVAEGEDLERAETNEAMGAEAAAYCRECIRARNLDMKLVDVEVFFDLSKLIFYFTAPSRIDFRELVKDLVKHYRTRIELRQIGVRHETQMIGAVGNCGMVCCCRRYLRKFAPVTIKMAKEQNLFLNPAKISGICGRLLCCLSYEQENYEEFHRSCPRLGKKYMTNRGPVKVLRANMFRNSLMAFTDTGEEIEISLDEWQQLDPRRPDQQPQQARPPRRDRPEGGSARDGNGDRAPAPSSDRAAGATGGEAARHGGGRAGERSDRGGRPDRAERADRRGMPHGDVPGSGETPPAGGEAEADAPSLHAAGVEFATEQPAPFDTSPDGGAVMGMEQVEALEHHHHHH", "soluble on expression in E. coli": "not soluble"}
{"sequence": "MLGDVYHLFSGGKDSSLAAWILRKLGYEVRLVTITFGVLDNWKYAKETADILGFEHEVVRLPRELLNMAVEMCIEDGKPGRAIQFLHEKALEYVASRSYVKRISDGTRRDDKVPFLDLRKARSLEDRFNVAYIRPLLGLGYKTIRELANSIFVIEERESEKLEKGDYEAELRYMLRERGINPKTIFPSRHMQSRVVGIKDDELGRS", "soluble on expression in E. coli": "soluble"}
{"sequence": "MGSDKIHHHHHHMDIDLARTFLEIARSGSFVAAAERLHLTQTAVTARIQNLEGQLGCRLFVRNRAGARLTADGEHFLGYASQLVQTWDAARRDLPLPDGFRNLLNLGGEVSLCNPLLLNWMRRLREAIPGHAVRVEIGQGADLLKQLEQGALDAALVYQPEYWPGLQVEQLLEEKLVMVRSVLSAEPYLYVDWGPDFRSQHDAALPDRAKAALACNLGPLALQYIMQNGGSGYFRTRVVSSYLDGGTLQRVEQAPEFAYPTYLVYSRERLSPTLRHAFQLLREVVREDSDWSQRWDYVI", "soluble on expression in E. coli": "not soluble"}
{"sequence": "MSEQKQDVAATEEQQPVLQIQRIYVKDVSFEAPNLPHIFQQEWKPKLGFDLSTETTQVGDDLYEVVLNISVETTLEDSGDVAFICEVKQAGVFTISGLEDVQMAHCLTSQCPNMLFPYARELVSNLVNRGTFPALNLSPVNFDALFVEYMNRQQAENAEEKSEEEQTKH", "soluble on expression in E. coli": "soluble"}
